# Molecular target: Mouse synaptosomes (BoNT/A acceptor on a mouse synaptosome preparation)
substance,measurement,value
Active BoNT/A (botulinum neurotoxin type A) (from UniProt P0DPI0 2-1296),maximum percent inhibition,78%
